Target: human CD3 (CD3 epsilon as part of the T cell receptor complex) on cells (human) (UniProt P07766)
Assay: flow cytometry on Jurkat cells, 10 nM antibody

Sequence of human CD3 (CD3 epsilon as part of the T cell receptor complex) on cells (human) (P07766 23-207 limits assumed, one chain of several): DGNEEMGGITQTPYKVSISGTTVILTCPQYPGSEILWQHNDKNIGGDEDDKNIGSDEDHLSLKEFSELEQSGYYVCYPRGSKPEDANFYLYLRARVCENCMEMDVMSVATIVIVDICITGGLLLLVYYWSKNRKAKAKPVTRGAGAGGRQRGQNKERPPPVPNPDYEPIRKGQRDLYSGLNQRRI

MFI (arbitrary units): 89200
Substance: UCHT1 (antibody)
